Measurements: patent publication US20140242093, “METHODS AND COMPOSITIONS FOR MODULATING THE INNATE IMMUNE RESPONSE AND/OR MYOGENESIS IN A MAMMALIAN SUBJECT” (FRED HUTCHINSON CANCER RESEARCH CENTER, published 2014)

B1: CSF1Rmut (dsDNA)
DNA 1: CCAGGTGGAGATACTTGTATGATGGGGGCAG
DNA 2: CTGCCCCCATCATACAAGTATCTCCACCTGG
B2: THE1Dmut (dsDNA)
DNA 1: CCTGTGGGAGGTACTCCTATGATGGAGGCAG
DNA 2: CTGCCTCCATCATAGGAGTACCTCCCACAGG
B3: TRIM48mut (dsDNA)
DNA 1: AGGAGTGATGATACTTTTATGAGCCGTGCAA
DNA 2: TTGCACGGCTCATAAAAGTATCATCACTCCT

Target: DUX4-fl (Homo sapiens, UniProt Q9UBX2 SEQ:1-424)
Sequence (Q9UBX2 whole entry): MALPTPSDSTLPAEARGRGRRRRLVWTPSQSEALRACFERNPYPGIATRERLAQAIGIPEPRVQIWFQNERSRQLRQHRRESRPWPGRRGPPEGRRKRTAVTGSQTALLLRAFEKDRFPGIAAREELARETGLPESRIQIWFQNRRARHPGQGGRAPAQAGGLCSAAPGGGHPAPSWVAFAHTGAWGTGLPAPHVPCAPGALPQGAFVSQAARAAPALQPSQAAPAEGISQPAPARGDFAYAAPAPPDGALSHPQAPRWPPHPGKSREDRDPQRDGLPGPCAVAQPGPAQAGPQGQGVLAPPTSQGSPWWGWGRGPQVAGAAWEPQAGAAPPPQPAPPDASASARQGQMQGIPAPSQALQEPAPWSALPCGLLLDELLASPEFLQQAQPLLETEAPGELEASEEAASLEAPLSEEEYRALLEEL
Assay: EMSA; cold mutant does not compete
Conditions: tags: pCS2-DUX4-fl, TNT SP6 wheat germ
Experimental: EMSA was performed with ³²P-labeled 31-bp oligonucleotides from endogenous genomic sequences containing the putative DUX4 binding site as probes (sequences below; only forward shown). Radiolabeled probes were incubated with in vitro translated protein generated from pCS2-DUX4-fl or pCS2-DUX4-s² vectors using the TNT SP6 Coupled Wheat Germ Extract System (Promega) according to manufacturer's instructions. To obtain supershift of protein-DNA complexes, 0.1 μg of E14-3 anti-DUX4 rabbit monoclonal antibody was added to the mixtures. For competition experiments, excess unlabeled probes of either wild-type or mutant sequences were included in the binding reaction. The gels were prepared and run as previously described (Knoepfler et al., 1999).
Electrophoretic mobility shift assay (EMSA) confirmed that DUX4-fl binds the core motifs present in both MaLR-associated and non-repeat associated sites: TRIM48 oligos—the TAATTTAATCA (SEQ ID NO:169) core sequence found near the TRIM48 gene, CSF1R oligos—the TAATTGAATCA (SEQ ID NO:171) core sequence found within the LTR of a THE1B retroelement near the CSF1R gene, and THE1D oligos—the TAATCCAATCA (SEQ ID NO:172) core sequence found within the LTR of the THE1D retroelement. […] Because the DUX4-s alternative splice form retains the N-terminal DNA-binding homeodomains, the inventors hypothesized that it would bind to the same sites as DUX4-fl. EMSA confirmed that DUX4-s specifically binds the same core binding site as DUX4-fl in vitro.

Binding result, no binding:
B1
B2
B3
